From paper PMC7076015 (2020)

Target: MBP-KPNA7(P339A) (human, UniProt A9QM74 1-516, P339A)

B1: GST-GFP-hnRNP R bipartite NLS (domain or fragment)
chain: RGGNVGGKRKADGYNQPDSKRRQTN
- Kd: ~157 nM
